Laboratory results taken from the supplement of paper PMC12042874.
± gives the uncertainty stated by the source.

Assay: amyloid nucleation score (Sup35N fusion, yeast selection) (log enrichment); library NNK1; higher = more nucleation; inactive = no reads after selection
In short: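 In psi-negative yeast, Sup35N fusions carrying peptides of 20 random codons were induced with 100 μM copper sulfate for 24 hours. The cells then grew 7 days at 30°C on medium lacking adenine and uracil, and plasmid inserts from input and output were Illumina-sequenced, excluding sequences with under 100 input reads. Nucleation score is the DiMSum log enrichment of output over input reads, centred on the mode score of non-aggregating sequences.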

Row | Substance | amyloid nucleation score
1 | SDLWLLECWTLDICGWLKAT | 0.992 ± 0.58
2 | SDMFSLNYSFDERTFWKQTS | inactive
3 | SDNYVKAYVRVRRVMTKGGS | -0.579 ± 0.58
4 | SDSGPTALNVYFPGTCQGNS | inactive
5 | SDVSYLVNSSNVGLWHL | 0.467 ± 0.4
6 | SDWGGVMVDRGSGW | 1.36 ± 0.47
7 | SEIPVNGLARLCRGRYRNRQ | 4.66 ± 0.11
8 | SEKGCYYIGSLTGR | 0.184 ± 1.2
9 | SEMSLSRDSCLLSIV | 0.141 ± 0.18
10 | SFARVWVWSACA | -0.559 ± 0.49
11 | SFCVRQSTVFLMMSWECFRY | 1.19 ± 0.8
12 | SFEFGSSGRICVCIMFPVER | 1.08 ± 0.56
13 | SFESVVIVLKLNALFPCVST | -0.048 ± 0.28
14 | SFFSSVVDF | 0.2 ± 0.63
15 | SFGVSNTSYWTAEKVVGYAT | 0.501 ± 0.7
16 | SFKRYRRYRSKRVRRIGRGR | 0.677 ± 0.52
17 | SFLLYGLFAYVSAYIRDICA | -0.166 ± 0.38
18 | SFLSVFAMFYVQLPCHNMVS | -0.15 ± 0.64
19 | SFNVKVAHGLIRFSPDICYQ | 4.47 ± 0.13
20 | SFRAKDG | inactive
21 | SFREHGRSSNRP | 0.423 ± 1.4
22 | SFSLMGRFRSFMYACIVAAC | -0.936 ± 0.57
23 | SFYCSHEVYLCNALYIDRVR | 3.67 ± 0.098
24 | SFYLIPPSCGYISHFGISTG | inactive
25 | SFYYWHPIALVSMVYK | 5.89 ± 0.073
26 | SGAYATVPVYQEWLSQIKLL | 0.327 ± 1

Row | Substance | amyloid nucleation score
27 | SGCGTGKVDVNWGLENAKAG | 0.408 ± 0.59
28 | SGDIKSFWMERCFCLVTHGK | -0.115 ± 0.57
29 | SGDSSYIMLLVVAPMYCQLP | -0.148 ± 0.83
30 | SGGSEELLRVVMVSSMKGPW | -0.254 ± 0.81
31 | SGHNSLGFISGIAINIFYRE | 7.537 ± 0.069
32 | SGHRFCAVRSRATGERFYGW | inactive
33 | SGLIKVGISLRLHYGLYLRY | 0.684 ± 0.88
34 | SGPFSTYMTRFFLDFGSVDC | -1.71 ± 2.4
35 | SGPRRQIDAIMFRGL | -0.086 ± 1.2
36 | SGQTYGNFFGEAFWYECA | 0.19 ± 1.4
37 | SGTTRWCRGGV | 0.127 ± 0.74
38 | SGVVTCVVFL | 5.38 ± 0.066
39 | SGWIKIFG | -0.293 ± 0.66
40 | SGYLRKRYTRRDC | inactive
41 | SGYSLASVVILLKAVYCLGW | 0.627 ± 0.72
42 | SGYWAPINLTGVMDS | 0.053 ± 1.1
43 | SHADVR | -0.027 ± 0.83
44 | SHIFRWNTCRMEIRWYNQYY | 1.14 ± 0.71
45 | SHVGSYSWVCSRLARIGCER | -0.703 ± 0.46
46 | SHYNNNHSAGWLLQLFTMAC | 0.05 ± 0.88
47 | SIFADGLVVGLGPSLYSVFF | 0.175 ± 0.54
48 | SIGLC | 1.31 ± 0.76
49 | SILMWLNLARSLGTIYLLFV | 0.046 ± 0.76
50 | SILVRVSVR | 0.444 ± 1.2
51 | SIMNISVAYCGSM | 3.67 ± 0.14
52 | SIQLGSFWSGCEICCDYPPA | -0.805 ± 0.67

Row | Substance | amyloid nucleation score
53 | SIRLPVIKRSRL | -0.109 ± 0.66
54 | SIRLREL | 1.61 ± 0.76
55 | SIRWVIHDRVSRVYDVLRCG | 0.944 ± 0.54
56 | SIYYKARSEWSMASAIDGYV | 0.85 ± 0.72
57 | SKDKGSTLGTSNLGRDGSWK | 0.5 ± 0.45
58 | SKDYVDL | inactive
59 | SKEESPMTFVWILGGHSELS | -0.448 ± 0.32
60 | SKICLMSIYHLQLDPFIGMP | 3.03 ± 0.17
61 | SKLFLGGLPCTQYWPRMCMV | -0.356 ± 0.64
62 | SKLTYLTMPSVGEIHFWNPM | 3.44 ± 0.18
63 | SKMCY | -0.692 ± 0.43
64 | SKSRMLPIGTRGCRNSQFVE | 1.06 ± 0.63
65 | SKYLCNMLPISDLHMGQTFN | -0.391 ± 0.44
66 | SLDEVARVLCP | -0.21 ± 0.58
67 | SLGIHPHVDKLLYRRFQLDY | -0.567 ± 0.77
68 | SLGLFKIIRKPYHCSAPSQA | 0.551 ± 0.47
69 | SLIRLCVAVTSTSNPGWPLL | 3.09 ± 0.12
70 | SLKCSNGR | 0.49 ± 0.3
71 | SLLCYRRGSWGEYIMFNGRL | -0.366 ± 0.84
72 | SLLRARIKVVPV | -1.46 ± 1.6
73 | SLMFTPEYCVED | 1.41 ± 0.69
74 | SLNAMFIFLLAYKRGVYEYM | 1.25 ± 0.24
75 | SLNKRWCLRTQFGVAMVRTP | 0.416 ± 0.99
76 | SLPVLCASRYHLHYRMGFSG | 1 ± 0.69
77 | SLRLFEFFWLTFGSSQIHLA | -0.032 ± 0.5
78 | SLRSQCGSVNLIFMVMFSVW | -0.236 ± 1.2

Row | Substance | amyloid nucleation score
79 | SLSRMVGCTTVF | inactive
80 | SLVALINNCSVSTKMGSLPY | 0.87 ± 0.22
81 | SLVLDGVSTPPIDYLNLVLV | -1.26 ± 0.76
82 | SLVLRRLYEVSVTCTAGNAW | 0.094 ± 0.98
83 | SLVMGVYRRQCRGNPRAMSK | 1.21 ± 0.44
84 | SLYDLTDTAICFAFFYFD | 7.95 ± 0.082
85 | SLYMT | 0.192 ± 0.34
86 | SLYRDYVRFGWLVRCGNGHD | 0.078 ± 0.23
87 | SMAPGDSS | 0.02 ± 0.34
88 | SMCLCVYIWIALYGWVMLIP | 0.217 ± 0.21
89 | SMDLHMYSKFMRYSVFVCNL | 1.14 ± 0.79
90 | SMLRCLY | 0.758 ± 0.85
91 | SMLRNTNLNAIPKFTVSFVL | -0.021 ± 0.69
92 | SMVRYTMDSKVKKRSSVVVG | 3.56 ± 0.18
93 | SNAPFRKAQQRGLYKWWSWR | 0.728 ± 0.54
94 | SNDVAFMAIKKHRTLSYQTD | 0.165 ± 0.47
95 | SNEVEGLFLKLYNFVPVRQW | 0.148 ± 0.26
96 | SNEVVKFKWSCIPETCSRVW | 0.429 ± 0.61
97 | SNIWSSKKINTCLGM | 1.7 ± 0.16
98 | SNKRNYRLE | 0.401 ± 0.62
99 | SNLLPLYP | 0.263 ± 1.1
100 | SNLRMLNMASTSPR | -0.368 ± 0.34
101 | SNLWFL | -0.213 ± 0.28
102 | SNMLHWSVRMGHGWW | 0.184 ± 1
103 | SNPTYLWVVLLVRSAALRMD | inactive
104 | SNRFFVPRA | -0.334 ± 0.5

Row | Substance | amyloid nucleation score
105 | SNSAFCNGSVMCVEVSLRHA | 7.037 ± 0.062
106 | SNSMLISYSCEFTWGVGKVL | 0.242 ± 0.4
107 | SNTICQVGASREEPSCGTQW | 1.14 ± 0.97
108 | SNVMWFYSWMWVRVTRRTCL | 1.71 ± 0.49
109 | SNWTPCQSESP | -0.311 ± 0.55
110 | SNWYRPTDAARLSLSYSRGG | -0.883 ± 1.1
111 | SPFDKIVAHGSRLML | -0.274 ± 0.64
112 | SPLFLVWLTCYKQDPFILVW | inactive
113 | SPNCM | -0.358 ± 1.4
114 | SPSYQRCLQMLEKIWKDLNH | 0.497 ± 0.31
115 | SPTVERSTGIR | -0.089 ± 0.49
116 | SPVESQNSNNRLTIMDLIMR | 0.574 ± 0.97
117 | SPVLIDVRGM | -0.413 ± 0.5
118 | SQCELWGCSCTPYNRMFSGN | inactive
119 | SQIYTFVDLFLSS | 1.26 ± 0.68
120 | SQMLELVFK | 0.818 ± 0.75
121 | SQVGYGSRDLEFTWWCGGNG | -0.278 ± 0.58
122 | SRATSYKFSTGRCCWTGTVK | 0.072 ± 0.91
123 | SRCLMRMTAPQVQEGACAVC | -0.268 ± 0.38
124 | SRDRNLVGLKLHVTVNKDVF | -1.41 ± 2.4
125 | SRFWKRVHAYTAVISEMYSA | -0.132 ± 0.52
126 | SRIFCTWPVSVIYNRADSAQ | 0.838 ± 0.56
